Measured values: patent US20170290886

Tested on: Recombinant GST-tagged MeCP2 protein (Prospec)

## His-tagged PIAS1 protein
  MeCP2 SUMOylation (in vitro SUMOylation assay with purified proteins): MeCP2 SUMOylation occurred when E1, E2, PIAS1 (the protein inhibitor of activated STAT1) and MeCP2 proteins were added
